In US20250215039A1, “NUCLEOSIDES FOR TREATING CANCER” (PRIMEFOUR THERAPEUTICS, INC., priority 2022, published 2025):

How the values were obtained:
Assay in all cases: not read
Conditions in all cases: other: substrate of human CDA, 37° C., Michaelis Menten fit, pH 7.5
not read [1] = substrate: C[C@]1(CO)O[C@@H](n2cc(F)c(N)nc2=O)[C@@H](O)[C@@H]1O
not read [2] = substrate: Nc1ccn([C@@H]2O[C@H](CO)[C@@H](O)C2(F)F)c(=O)n1
not read [3] = substrate: C[C@]1(CO)O[C@@H](n2ccc(N)nc2=O)[C@@H](O)[C@@H]1O
not read [4] = substrate: C[C@]1(CO)O[C@@H](n2cc(F)c(N)nc2=O)C[C@@H]1O

B1: human cytidine deaminase (CDA) (Homo sapiens) (protein)
chain: MAQKRPACTLKPECVQQLLVCSQEAKKSAYCPYSHFPVGAALLTQEGRIFKGCNIENACYPLGICAERTAIQKAVSEGYKDFRAIAIASDMQDDFISPCGACRQVMREFGTNWPVYMTKPDGTYIVMTVQELLPSSFGPEDLQKTQ
Question: With B1 as the protein, how does the Km (not read [1]) read?
Answer: 1057.8 µM

Question: What about the kcat (not read [1]) of the same protein?
Answer: 6.1 s⁻¹

Question: And the kcat/Km (not read [1])?
Answer: 5000 M⁻¹ s⁻¹

Question: What about the Km (not read [2]) of the same protein?
Answer: 520.8 µM

Question: What about the kcat (not read [2]) of the same protein?
Answer: 26.8 s⁻¹

Question: And the kcat/Km (not read [2])?
Answer: 0.53 (M^−1s^−1) × 10^5

Question: And the Km (not read [3])?
Answer: 196 µM

Question: And the kcat (not read [3])?
Answer: 2.8 s⁻¹

Question: And the kcat/Km (not read [3])?
Answer: 16000 M⁻¹ s⁻¹

Question: What about the Km (not read [4]) of the same protein?
Answer: 1003 µM

Question: What about the kcat (not read [4]) of the same protein?
Answer: 13.3 s⁻¹

Question: And the kcat/Km (not read [4])?
Answer: 23000 M⁻¹ s⁻¹
